According to US20180142226:

What was measured:
PFPQPQLPY peptide = biological target: T1, PFPQPQLPY peptide
T1 chain: PFPQPQLPY

PFPQPQQPF peptide = biological target: T2, PFPQPQQPF peptide
T2 chain: PFPQPQQPF

B1: Kuma011-I463Q (protein)
chain: AAPTAYTPLDVAQAYQFPEGLDGQGQCIAIIELGGGYDEASLAQYFASLGVPAPQVVSVSVDGASNQPTGDPKGPDGEVELDIEVAGALAPGAKFAVYFAPDTTAGFLDAITTAIHDPTLKPSVVSISWSGPEDSWTSAAIAAMNRAFLDAAALGVTVLAAAGDSGSTGGEQDGLYHVHFPAASPYVLACGGTRLVASGGRIAQETVWNDGPDGGATGGGVSRIFPLPAWQEHANVPPSANPGASSGRGVPDLAGNADPATGYEVVIDGEATVQGGTSAVAPLFAALVARINQKLGKAVGYLNPTLYQLPADVFHDITEGNNDIANRAQIYQAGPGWDPCTGLGSPIGVRLLQALLPSASQPQ
% Improvement on PFPQPQLPY (SEQ ID NO: 67) (PFPQPQLPY peptide): 129%
% Improvement on PFPQPQQPF (SEQ ID NO: 68) (PFPQPQQPF peptide): 69%

B2: Kuma011-E269L (protein)
chain: AAPTAYTPLDVAQAYQFPEGLDGQGQCIAIIELGGGYDEASLAQYFASLGVPAPQVVSVSVDGASNQPTGDPKGPDGEVLLDIEVAGALAPGAKFAVYFAPDTTAGFLDAITTAIHDPTLKPSVVSISWSGPEDSWTSAAIAAMNRAFLDAAALGVTVLAAAGDSGSTGGEQDGLYHVHFPAASPYVLACGGTRLVASGGRIAQETVWNDGPDGGATGGGVSRIFPLPAWQEHANVPPSANPGASSGRGVPDLAGNADPATGYEVVIDGEATVIGGTSAVAPLFAALVARINQKLGKAVGYLNPTLYQLPADVFHDITEGNNDIANRAQIYQAGPGWDPCTGLGSPIGVRLLQALLPSASQPQ
% Improvement on PFPQPQLPY (SEQ ID NO: 67) (PFPQPQLPY peptide): 113%
% Improvement on PFPQPQQPF (SEQ ID NO: 68) (PFPQPQQPF peptide): 84%

B3: Kuma010/011 E221D (protein)
chain: AAPTAYTPLDVAQAYQFPEGLDGQGQCIAIIDLGGGYDEASLAQYFASLGVPAPQVVSVSVDGASNQPTGDPKGPDGEVELDIEVAGALAPGAKFAVYFAPDTTAGFLDAITTAIHDPTLKPSVVSISWSGPEDSWTSAAIAAMNRAFLDAAALGVTVLAAAGDSGSTGGEQDGLYHVHFPAASPYVLACGGTRLVASGGRIAQETVWNDGPDGGATGGGVSRIFPLPAWQEHANVPPSANPGASSGRGVPDLAGNADPATGYEVVIDGEATVIGGTSAVAPLFAALVARINQKLGKAVGYLNPTLYQLPADVFHDITEGNNDIANRAQIYQAGPGWDPCTGLGSPIGVRLLQALLPSASQPQ
% Improvement on PFPQPQLPY (SEQ ID NO: 67) (PFPQPQLPY peptide): 105%

B4: Kuma011-I463V (protein)
chain: AAPTAYTPLDVAQAYQFPEGLDGQGQCIAIIELGGGYDEASLAQYFASLGVPAPQVVSVSVDGASNQPTGDPKGPDGEVELDIEVAGALAPGAKFAVYFAPDTTAGFLDAITTAIHDPTLKPSVVSISWSGPEDSWTSAAIAAMNRAFLDAAALGVTVLAAAGDSGSTGGEQDGLYHVHFPAASPYVLACGGTRLVASGGRIAQETVWNDGPDGGATGGGVSRIFPLPAWQEHANVPPSANPGASSGRGVPDLAGNADPATGYEVVIDGEATVVGGTSAVAPLFAALVARINQKLGKAVGYLNPTLYQLPADVFHDITEGNNDIANRAQIYQAGPGWDPCTGLGSPIGVRLLQALLPSASQPQ
% Improvement on PFPQPQLPY (SEQ ID NO: 67) (PFPQPQLPY peptide): 256%
% Improvement on PFPQPQQPF (SEQ ID NO: 68) (PFPQPQQPF peptide): 141%

B5: Kuma011-K262E (protein)
chain: AAPTAYTPLDVAQAYQFPEGLDGQGQCIAIIELGGGYDEASLAQYFASLGVPAPQVVSVSVDGASNQPTGDPEGPDGEVELDIEVAGALAPGAKFAVYFAPDTTAGFLDAITTAIHDPTLKPSVVSISWSGPEDSWTSAAIAAMNRAFLDAAALGVTVLAAAGDSGSTGGEQDGLYHVHFPAASPYVLACGGTRLVASGGRIAQETVWNDGPDGGATGGGVSRIFPLPAWQEHANVPPSANPGASSGRGVPDLAGNADPATGYEVVIDGEATVIGGTSAVAPLFAALVARINQKLGKAVGYLNPTLYQLPADVFHDITEGNNDIANRAQIYQAGPGWDPCTGLGSPIGVRLLQALLPSASQPQ
% Improvement on PFPQPQLPY (SEQ ID NO: 67) (PFPQPQLPY peptide): 109%
% Improvement on PFPQPQQPF (SEQ ID NO: 68) (PFPQPQQPF peptide): 110%

B6: Kuma010/011 E221Q (protein)
chain: AAPTAYTPLDVAQAYQFPEGLDGQGQCIAIIQLGGGYDEASLAQYFASLGVPAPQVVSVSVDGASNQPTGDPKGPDGEVELDIEVAGALAPGAKFAVYFAPDTTAGFLDAITTAIHDPTLKPSVVSISWSGPEDSWTSAAIAAMNRAFLDAAALGVTVLAAAGDSGSTGGEQDGLYHVHFPAASPYVLACGGTRLVASGGRIAQETVWNDGPDGGATGGGVSRIFPLPAWQEHANVPPSANPGASSGRGVPDLAGNADPATGYEVVIDGEATVIGGTSAVAPLFAALVARINQKLGKAVGYLNPTLYQLPADVFHDITEGNNDIANRAQIYQAGPGWDPCTGLGSPIGVRLLQALLPSASQPQ
% Improvement on PFPQPQLPY (SEQ ID NO: 67) (PFPQPQLPY peptide): 105%

B7: Kuma011-I463R (protein)
chain: AAPTAYTPLDVAQAYQFPEGLDGQGQCIAIIELGGGYDEASLAQYFASLGVPAPQVVSVSVDGASNQPTGDPKGPDGEVELDIEVAGALAPGAKFAVYFAPDTTAGFLDAITTAIHDPTLKPSVVSISWSGPEDSWTSAAIAAMNRAFLDAAALGVTVLAAAGDSGSTGGEQDGLYHVHFPAASPYVLACGGTRLVASGGRIAQETVWNDGPDGGATGGGVSRIFPLPAWQEHANVPPSANPGASSGRGVPDLAGNADPATGYEVVIDGEATVRGGTSAVAPLFAALVARINQKLGKAVGYLNPTLYQLPADVFHDITEGNNDIANRAQIYQAGPGWDPCTGLGSPIGVRLLQALLPSASQPQ
% Improvement on PFPQPQLPY (SEQ ID NO: 67) (PFPQPQLPY peptide): 29%
% Improvement on PFPQPQQPF (SEQ ID NO: 68) (PFPQPQQPF peptide): 110%

B8: Kuma011-V268T (protein)
chain: AAPTAYTPLDVAQAYQFPEGLDGQGQCIAIIELGGGYDEASLAQYFASLGVPAPQVVSVSVDGASNQPTGDPKGPDGETELDIEVAGALAPGAKFAVYFAPDTTAGFLDAITTAIHDPTLKPSVVSISWSGPEDSWTSAAIAAMNRAFLDAAALGVTVLAAAGDSGSTGGEQDGLYHVHFPAASPYVLACGGTRLVASGGRIAQETVWNDGPDGGATGGGVSRIFPLPAWQEHANVPPSANPGASSGRGVPDLAGNADPATGYEVVIDGEATVIGGTSAVAPLFAALVARINQKLGKAVGYLNPTLYQLPADVFHDITEGNNDIANRAQIYQAGPGWDPCTGLGSPIGVRLLQALLPSASQPQ
% Improvement on PFPQPQLPY (SEQ ID NO: 67) (PFPQPQLPY peptide): 127%
% Improvement on PFPQPQQPF (SEQ ID NO: 68) (PFPQPQQPF peptide): 105%

B9: Kuma011-V268A (protein)
chain: AAPTAYTPLDVAQAYQFPEGLDGQGQCIAIIELGGGYDEASLAQYFASLGVPAPQVVSVSVDGASNQPTGDPKGPDGEAELDIEVAGALAPGAKFAVYFAPDTTAGFLDAITTAIHDPTLKPSVVSISWSGPEDSWTSAAIAAMNRAFLDAAALGVTVLAAAGDSGSTGGEQDGLYHVHFPAASPYVLACGGTRLVASGGRIAQETVWNDGPDGGATGGGVSRIFPLPAWQEHANVPPSANPGASSGRGVPDLAGNADPATGYEVVIDGEATVIGGTSAVAPLFAALVARINQKLGKAVGYLNPTLYQLPADVFHDITEGNNDIANRAQIYQAGPGWDPCTGLGSPIGVRLLQALLPSASQPQ
% Improvement on PFPQPQLPY (SEQ ID NO: 67) (PFPQPQLPY peptide): 107%
% Improvement on PFPQPQQPF (SEQ ID NO: 68) (PFPQPQQPF peptide): 89%

B10: Kuma011-I463T (protein)
chain: AAPTAYTPLDVAQAYQFPEGLDGQGQCIAIIELGGGYDEASLAQYFASLGVPAPQVVSVSVDGASNQPTGDPKGPDGEVELDIEVAGALAPGAKFAVYFAPDTTAGFLDAITTAIHDPTLKPSVVSISWSGPEDSWTSAAIAAMNRAFLDAAALGVTVLAAAGDSGSTGGEQDGLYHVHFPAASPYVLACGGTRLVASGGRIAQETVWNDGPDGGATGGGVSRIFPLPAWQEHANVPPSANPGASSGRGVPDLAGNADPATGYEVVIDGEATVTGGTSAVAPLFAALVARINQKLGKAVGYLNPTLYQLPADVFHDITEGNNDIANRAQIYQAGPGWDPCTGLGSPIGVRLLQALLPSASQPQ
% Improvement on PFPQPQLPY (SEQ ID NO: 67) (PFPQPQLPY peptide): 130%
% Improvement on PFPQPQQPF (SEQ ID NO: 68) (PFPQPQQPF peptide): 239%

B11: Kuma011-V268S (protein)
chain: AAPTAYTPLDVAQAYQFPEGLDGQGQCIAIIELGGGYDEASLAQYFASLGVPAPQVVSVSVDGASNQPTGDPKGPDGESELDIEVAGALAPGAKFAVYFAPDTTAGFLDAITTAIHDPTLKPSVVSISWSGPEDSWTSAAIAAMNRAFLDAAALGVTVLAAAGDSGSTGGEQDGLYHVHFPAASPYVLACGGTRLVASGGRIAQETVWNDGPDGGATGGGVSRIFPLPAWQEHANVPPSANPGASSGRGVPDLAGNADPATGYEVVIDGEATVIGGTSAVAPLFAALVARINQKLGKAVGYLNPTLYQLPADVFHDITEGNNDIANRAQIYQAGPGWDPCTGLGSPIGVRLLQALLPSASQPQ
% Improvement on PFPQPQLPY (SEQ ID NO: 67) (PFPQPQLPY peptide): 104%
% Improvement on PFPQPQQPF (SEQ ID NO: 68) (PFPQPQQPF peptide): 83%

B12: Kuma010/011 E221N (protein)
chain: AAPTAYTPLDVAQAYQFPEGLDGQGQCIAIINLGGGYDEASLAQYFASLGVPAPQVVSVSVDGASNQPTGDPKGPDGEVELDIEVAGALAPGAKFAVYFAPDTTAGFLDAITTAIHDPTLKPSVVSISWSGPEDSWTSAAIAAMNRAFLDAAALGVTVLAAAGDSGSTGGEQDGLYHVHFPAASPYVLACGGTRLVASGGRIAQETVWNDGPDGGATGGGVSRIFPLPAWQEHANVPPSANPGASSGRGVPDLAGNADPATGYEVVIDGEATVIGGTSAVAPLFAALVARINQKLGKAVGYLNPTLYQLPADVFHDITEGNNDIANRAQIYQAGPGWDPCTGLGSPIGVRLLQALLPSASQPQ
% Improvement on PFPQPQLPY (SEQ ID NO: 67) (PFPQPQLPY peptide): 105%

B13: Kuma011-N424K (protein)
chain: AAPTAYTPLDVAQAYQFPEGLDGQGQCIAIIELGGGYDEASLAQYFASLGVPAPQVVSVSVDGASNQPTGDPKGPDGEVELDIEVAGALAPGAKFAVYFAPDTTAGFLDAITTAIHDPTLKPSVVSISWSGPEDSWTSAAIAAMNRAFLDAAALGVTVLAAAGDSGSTGGEQDGLYHVHFPAASPYVLACGGTRLVASGGRIAQETVWNDGPDGGATGGGVSRIFPLPAWQEHAKVPPSANPGASSGRGVPDLAGNADPATGYEVVIDGEATVIGGTSAVAPLFAALVARINQKLGKAVGYLNPTLYQLPADVFHDITEGNNDIANRAQIYQAGPGWDPCTGLGSPIGVRLLQALLPSASQPQ
% Improvement on PFPQPQLPY (SEQ ID NO: 67) (PFPQPQLPY peptide): 285%

B14: Kuma010/011 E221H (protein)
chain: AAPTAYTPLDVAQAYQFPEGLDGQGQCIAIIHLGGGYDEASLAQYFASLGVPAPQVVSVSVDGASNQPTGDPKGPDGEVELDIEVAGALAPGAKFAVYFAPDTTAGFLDAITTAIHDPTLKPSVVSISWSGPEDSWTSAAIAAMNRAFLDAAALGVTVLAAAGDSGSTGGEQDGLYHVHFPAASPYVLACGGTRLVASGGRIAQETVWNDGPDGGATGGGVSRIFPLPAWQEHANVPPSANPGASSGRGVPDLAGNADPATGYEVVIDGEATVIGGTSAVAPLFAALVARINQKLGKAVGYLNPTLYQLPADVFHDITEGNNDIANRAQIYQAGPGWDPCTGLGSPIGVRLLQALLPSASQPQ
% Improvement on PFPQPQLPY (SEQ ID NO: 67) (PFPQPQLPY peptide): 105%
